# Earlier results as cited in US20190275108A1, “COMPOSITIONS IN THE FORM OF AN INJECTABLE AQUEOUS SOLUTION COMPRISING AMYLIN, AN AMYLIN RECEPTOR AGONIST OR AN AMYLIN ANALOGUE AND A CO-POLYAMINO ACID” (ADOCIA, priority 2017, published 2019).
# Where two headings read alike, the source gives them in different places.
substance,measurement,setting,value
"amylin: peptide of 37 amino acids, co-stored and co-secreted with insulin (KCNTATCATQRLANFLVHSSNNFGAILSSTNVGSNTY; Islet amyloid polypeptide; UniProt P10997 34-70, looked up)",Time for which amylin is stable,acidic pH,about fifteen
same,Time for which amylin is stable,neutral pH,less than a minute
